{"source": "paper PMC8646600", "about": "(2021)", "key": {"[1]": {"target": "SARS-CoV-2 RBD titrated over immobilised Fabs (construct not stated) (SARS-CoV-2, UniProt P0DTC2 319-541)", "test": "BLI"}, "[2]": {"target": "SARS-CoV-2 spike RBD (S-RBD), hFc tag removed by thrombin digestion, biotinylated (SARS-CoV-2, UniProt P0DTC2 319-541)", "test": "BLI"}}, "data": [{"binder": "S-B8 Fab (Fab, V domains shown) VH: QVQLVQSGGGLIQPGGSLRLSCAASGFTVSLSHMNWVRQAPGKGLEWVSITYGDGNSDYADSVKGRFTISRDNSKNTLYLQMNSLRAEDTAVYYCAREYYYGMDVWGQGTTVTVSS VL: not shown", "values": [{"measurement": "koff", "setting": "[1]", "value": 0.0027, "unit": "s⁻¹"}]}, {"binder": "S-B8 full-length human IgG4e1(S228P) antibody (antibody, V domains shown) VH: QVQLVQSGGGLIQPGGSLRLSCAASGFTVSLSHMNWVRQAPGKGLEWVSITYGDGNSDYADSVKGRFTISRDNSKNTLYLQMNSLRAEDTAVYYCAREYYYGMDVWGQGTTVTVSS VL: not shown", "values": [{"measurement": "koff", "setting": "[2]", "value": 0.00267, "unit": "s⁻¹"}]}, {"binder": "S-E6 full-length human IgG4e1(S228P) antibody (antibody, V domains shown) VH: QVTLRESGPGLVKPSETLSLTCAVSGGSLSSVNYYWSWIRQHPGKGLEWIGYIYYSGSTNYNPSLKSRVTMSLDTSKNQFSLKLSSVTAADTAVYYCATPGAIMGALHIWGQGTLVTVSS VL: QAVLTQPSSASSTPGQRVIISCSGSSSNIGSNTVSWYQQVPGAAPKLLIYFDYRRPSGVPDRFSGTRSGTSASLGISGLQSEDEADYYCAAWDDSLSAWVFGRGTKLTVL", "values": [{"measurement": "koff", "setting": "[2]", "value": 0.000865, "unit": "s⁻¹"}]}, {"binder": "S-E6 Fab (Fab, V domains shown) VH: QVTLRESGPGLVKPSETLSLTCAVSGGSLSSVNYYWSWIRQHPGKGLEWIGYIYYSGSTNYNPSLKSRVTMSLDTSKNQFSLKLSSVTAADTAVYYCATPGAIMGALHIWGQGTLVTVSS VL: QAVLTQPSSASSTPGQRVIISCSGSSSNIGSNTVSWYQQVPGAAPKLLIYFDYRRPSGVPDRFSGTRSGTSASLGISGLQSEDEADYYCAAWDDSLSAWVFGRGTKLTVL", "values": [{"measurement": "koff", "setting": "[1]", "value": 0.00196, "unit": "s⁻¹"}]}]}
